Consider 30 sequences from the nanobody polyreactivity screen of Harvey et al. (2022).

This series is described as follows: yeast display, Sf9 membrane polyspecificity reagent, FACS + sequencing; frameworks hold sequencing errors. The essentials:
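Galactose-induced (36–48 hours) yeast carrying a synthetic nanobody display library were exposed to 10% biotinylated, detergent-solubilized Sf9 membrane reagent at 4 °C for 1 hour. FACS followed streptavidin microbead enrichment, using low and high (top ~1%) gates for expression (anti-HA) and reagent binding (streptavidin). Colony PCR, MiSeq 2 × 250 sequencing and CDR-length filtering followed. Labels for polyreactivity reflect the gate of origin.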
For “QVQLVESGGGLVQAGGSLRLSCAASGRIYLYAMGWYRQTPGKERELVAAISYSGGSTYYADSVKGRFTISRDYAKNTVYLQMNCLKPEDTAVYYWASEAGSYWGKGTQVTVSS”, the “polyreactivity (PSR sort gate)” value is “high polyreactivity”.
For “QVQLVQSGGGLVQAGGSLRLSCAASGRPSLLMLWDGIDRRLGKKGSWLPLLTLVTPTTYADSVKGRFTISRDNAKNTVYLQMNSLKPEDTAVYYCNADFRPLDHYVNWYYYWGQGTQVTVSS”, the “polyreactivity (PSR sort gate)” value was “low polyreactivity”.
For “QVQLVESGGGLVQAGGRLRLSCAASGFTFGWNAMGWYRQAPGKEREMVASIYSGDSTYYADSVKGRFTISRDNAKNTVYLQMNSLKPEDTAVYYCATAPYVTSRRYGPYEYWGQGTQVTVSS”, the “polyreactivity (PSR sort gate)” value is on record as “low polyreactivity”.
“QVQLVESGGGLVQAGGSLRLSCAASGRTFGRKAMGWYRQAPGKERELVAAIARSGASTYYADSVKGRFTISRDNAKNTVYLQMNSLNPEDTAVYYCAKDVWGSRYAYDYWGQGTQVTVSS”: the “polyreactivity (PSR sort gate)” value was “low polyreactivity”.
As for “QVQRVESRGGLVQAGGSLRLSCAASGSTFHRYVKGWSRTATGKERELVSVINSTGASTYYADSVKWRYTLSRDNAKNSVYLQMNSLKPEDTAVYYCARVTRRGPGYTTLYSRYDYWGQGTQVTVSS”, the entry is “low polyreactivity”; as for “QVQLVESGGGLVQAGGSLRLSCAASGSTFKFNDMGWYRQAPGKERELVAAISRGGRTNYADSVKGRFTISRDNAKNTVYLQMNSLKPEDTAVYYCAADYSTLYKYDYWGQGTQVTVSS”, “low polyreactivity”.
Turning to “QVQLVESRGGLVQAGGSLRLSCAASGITFYVNDMGWYRQEPGTERELVAAISYRGGSTYYADSVKGRFTISRDNAKNTVYLQMNSLKPEDTAVYYCAADYNYWSPHRDDYWGQGTQVTVSS”, the “polyreactivity (PSR sort gate)” value was “low polyreactivity”.
Take “QVQLVESGGGLVQAGGSLRLSCAASGRIFPHNAMGWYRQAPGTERELVAAISSNVGSTYYADSVKGRFTISRDNAKNTVYFQMNSLKPEDTAVYYCAKYRYFAGDGDYWGQGTQVTVSS”: the “polyreactivity (PSR sort gate)” value is “low polyreactivity”.
For the sequence “QVQLVESGGGLVQAGGSLRLICAASGSTFWSNAMGWYRQAPGKERELVATINSGDGTNYADSVKGRFTISRDNAKNTVYLQMNSLKPEDTAVYYCAAEKYYPWGWYTYDYWGQGTQVTVSS”, the “polyreactivity (PSR sort gate)” value was “high polyreactivity”.
With “QVQLVESGGGLVQAGGSLRLSCAASGRTFAVYAMGWYRQAPGKERELVAAITFGGGRTYYADSVKGRFTISRDNAKITVYLQMNSLKPEDTAVYYCAADYYGTDYDYRGQGTQVTVSS”, the “polyreactivity (PSR sort gate)” value is “low polyreactivity”.
In the case of “QVHLVESGGGLVQAGGSLRLSCAASGSTILFYAMGWYRQAPGKERELVATISRGGSTYYADSVKGRFTISRDNAKNTVYLEMNSLKPEDTAVYYCAARATRVTIAPRYGYWGQGTQVTVSS”, the “polyreactivity (PSR sort gate)” value is listed as “low polyreactivity”.
The value for “QVQHVESGGGLVQAGGSRRLSCAASGSIFFYAMGWYRQAPAKERVLVAAITSAGSTNFADSVKGRFTISRDNAKNTVYLQMYSLKPEDTAVYYCAAGYVGYSWSYPYGWVEYDYWGQGTQVTVSS” was “high polyreactivity”.
Regarding “QVHLVESGGGLVQAGGSHRLSCAASGSTLRWNAMGWYRQAPGKERELVAAITYSGGSTYYADSVKGRFTISRDNAKNTVYFQMNSLKPEDTAVYYCAADSYRYRPGYGPVLYDYWGQGTQVTVSS”, the “polyreactivity (PSR sort gate)” value is “high polyreactivity”.
Regarding “QVQLVESGGGLVQAGGSLRLSCAASGSIFRIYAMGWYRQSPGKERELVAAISFSTGSRTYYADSVKGRFTISRDNAKNTVYLQMNSLKPEDTAVYYCNAESYYDYNYWGQGTQVTVSS”, the “polyreactivity (PSR sort gate)” value is recorded as “low polyreactivity”.
The value for “QVQLVESGGGLVQAGGSLRLSCAASGFTFTYYAMGWYRQAPGKERELVAAISWSSDSTYYADSVKGRFTISRDNAKNTVYLQMNSLKPEDTAVYYWAARPGSKNVEYYYWGQGTQVTVSS” was “low polyreactivity”; that for “QVQLVESGGGLVQAGGSLRLSCAASGRTFRYYAMGWYRPAPGKERELVATITGSGGSTYYADSVKGRFTISRDNAKNTVYLQMNSLKPEDTAVYDCNARKVRYPYRWYVYWGQGTQVTVSS” was “high polyreactivity”.
As to “QVQLVESGGGLVQAGGSLRLSCAASGRIFGSYAMGWYRQAPGKERELVAAISWRGTSTYYADSVKGRFTISRDNAKNTVYLQMNSLKPEDTAVYYCAARGLWPYDYWGQGTQVTVSS”, the “polyreactivity (PSR sort gate)” value was “low polyreactivity”.
Regarding “QVQLVESGGGLVQAGGSLRLSCAASGRTFSYYAMGWYRQAPGKERELVAGISWRGTSTYADSVKGRFTISRDNAKNTVYLQMNSLKPEDTAVYYWNAEVTGHYSYHKFDYWGQGTQVTVSS”, the “polyreactivity (PSR sort gate)” value is reported as “low polyreactivity”.
On to “QVQLVESGGGLVQAGGSLRLSCAASGRIFGVYAMGWYRQSPGKERELVAPISRSGGRTYYADSVKGRFTISRDNAKNSDYLQMNSLKPEDTAVYYCNVVRWYYHPPLTGSRFDYWGQGTQVTVSS”, for which the “polyreactivity (PSR sort gate)” value was “high polyreactivity”.
Turning to “QVQLVESGGGLVQAGGSLRLSCAASGRTFPLYAMGWYRQAPGKERELVAAISWSGGSTYYADSVKGRFTISRDHAKNTVYLQMNSLKPEDTAVYYCNTLGRLTGRYGWSSKYYYWGQGTQVTVSS”, the “polyreactivity (PSR sort gate)” value is on record as “high polyreactivity”.
The value for “QVQLVESGGGLVQAGGSLRLICAASGRTFSNAMGWYRQAPGKERELVADISSGGSPNYADSVKGRFTISRDNAKNTVYLEINSLKPEDTAVYYCAAFSGCLYGYSDDYWGQGTQVTVSS” was “low polyreactivity”; that for “QVHLVESGGGLVQAGGSLRLSCAASGSTIYYNAMGWYRQAPGKERELVAAISKSSSRTYYADSVKGRFTISRDNAKNTVYLQMNSLKTEDTAVYFCAADAVYFHFDYWGQGTQVTVSS” was “high polyreactivity”; that for “QVQLVESGGGLVQAGGSLRLSCAASGSIFSYNAMGWYRKAPGKERELVAAIRASGGDTYYADSVKGRFTISRDNAKNTVYLQMNSLKPEDTAVYYCAARTYAHHYASHGYWGQGTQVTVSS” was “low polyreactivity”.
In the case of “QVQLVESGGGLVQAGGSLRLSCAASGRTFDGYDMGSYRQAPGKERELVAAINVVGGSTYYADSVKGRFTISRDNAKNTVYLLMNSLKPEDTEVYYCAARRSYLTNFRRYYKMDYWGQGTQVTVAS”, the “polyreactivity (PSR sort gate)” value is on record as “low polyreactivity”.
Turning to “QVQLVESGGGLGQAGGSLRLSCAASGSTFPYYAMGWSRPAPGKERELVAVITSSGSRTYYADSVKGRFSMSRDKAKNTVYLQMNSLKPEETAVYYCARDTRYYRPYRSQYDYWGQGTQVTVSS”, the “polyreactivity (PSR sort gate)” value is reported as “high polyreactivity”.
As to “QVQLVESGGGLVQAGGSLRLSCAASGGIFPFYAMGWYRQAPGKERELVAAISGIGDSTYYADSVKGRFTISRDNAKNTVYLQMNSLKPEDTAVYYCAREFSDGLSGKFDYWGQGTQVTVSS”, the “polyreactivity (PSR sort gate)” value was “low polyreactivity”.
As for “QVQIVESGGGLVQAGGSLRLSCAASGRTFKYYAMGWYRPAPGKERELVAAISYSGGSTYYADSVKGRFTISRDNAKNTVYLQMNSLKPEDTAVYYCAARFTRYYSGCDQKYDYWGQGTQVTVSS”, the entry is “high polyreactivity”.
As for “QVQFVESGGGLVQAGGSLRLSCAASGSTFQGYAMGWYRQAPGKERELVAAISRSGGRTYYADSVKGRFTISRDNAKNTVYLQMNSLKPEDTAVYYCAKYYWAPTGAHGGYGYWGQGTQVTVSS”, the entry is “low polyreactivity”.
On to “QVQLVESGGGLVQAGGSLRLSCAASGSIFRPYAMGWYRQAPGKEMELVAAISSSGGSTYYADSVKGRFTISRDNAKNTVYLQMNSLKPEDTAVYYCAAESRSTWIHSRDYWGQGTQVTVSS”, for which the “polyreactivity (PSR sort gate)” value is recorded as “low polyreactivity”.
For the sequence “LVQLQESAGGLVQAGGSLRLSCAASGSISVTRAMCWYRQAPGNERELVASTTGGSNNADSVNGRFTISRDNAKNTVYLQMNSLKPEDTAVYYCAAAVGVGRSGGTYDYWGQGTQVTVSS”, the “polyreactivity (PSR sort gate)” value was “low polyreactivity”.
